Laboratory results reported in article doi:10.1101/301622 (bioRxiv, 2018).

Target: ΔCTT, a variant of FtsZ that lacks the CTT (B. subtilis)

ΔCTT, a variant of FtsZ that lacks the CTT (domain or fragment)
GTPase activity (coupled assay, 5 μM protein, 1 mM GTP), relative to WT FtsZ: 3 fold
